These results are taken from paper doi:10.1101/2025.03.06.641801, “DMBT1 promotes SARS-CoV-2 infection and its SRCR-derived peptide inhibits SARS-CoV-2 infection” (bioRxiv, 2025).

This data set deals with the molecule itself. As to the kind of experiment: reverse-phase HPLC with TOF mass detection; peptide 7 of an earlier (old) synthetic batch in PBS; Agilent HPLC Infinity II 1290 with TOF 6230, 5-65% acetonitrile/water with 0.1% TFA, 40 C.

B1: peptide 7 (CQGRVEVLYRGSWGTV), SRCR-domain-derived peptide of DMBT1 (peptide)
peptide: CQGRVEVLYRGSWGTV
notes: Free N-terminal cysteine; earlier synthetic batches formed disulfide-linked homodimers in PBS; also called Pep7
B1: the binding result was “binds”.
